In publication PMC12948210 (2025):

Tests used:
Experiment in all cases: GST pull-down; 500 mM NaCl; denaturing pull-down (His-DDX21 purified in urea or guanidine)
[1] = target: T1, GST-tagged EIF1AX RBP fragment (Homo sapiens (Human), UniProt P47813)
T1 chain: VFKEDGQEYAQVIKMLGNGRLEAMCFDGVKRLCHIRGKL

[2] = target: T2, GST-tagged EIF1AX IDR2 fragment (Homo sapiens (Human), UniProt P47813)
T2 chain: DIGDDDEDIDDI

[3] = target: T3, GST-tagged EIF1AX IDR1 fragment (Homo sapiens (Human), UniProt P47813)
T3 chain: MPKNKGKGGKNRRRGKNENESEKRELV

binding result [1]: binds
binding result [2]: no binding
binding result [3]: no binding
B1: His-DDX21 (protein)
chain: MPGKLRSDAGLESDTAMKKGETLRKQTEEKEKKEKPKSDKTEEIAEEEETVFPKAKQVKKKAEPSEVDMNSPKSKKAKKKEEPSQNDISPKTKSLRKKKEPIEKKVVSSKTKKVTKNEEPSEEEIDAPKPKKMKKEKEMNGETREKSPKLKNGFPHPEPDCNPSEAASEESNSEIEQEIPVEQKEGAFSNFPISEETIKLLKGRGVTFLFPIQAKTFHHVYSGKDLIAQARTGTGKTFSFAIPLIEKLHGELQDRKRGRAPQVLVLAPTRELANQVSKDFSDITKKLSVACFYGGTPYGGQFERMRNGIDILVGTPGRIKDHIQNGKLDLTKLKHVVLDEVDQMLDMGFADQVEEILSVAYKKDSEDNPQTLLFSATCPHWVFNVAKKYMKSTYEQVDLIGKKTQKTAITVEHLAIKCHWTQRAAVIGDVIRVYSGHQGRTIIFCETKKEAQELSQNSAIKQDAQSLHGDIPQKQREITLKGFRNGSFGVLVATNVAARGLDIPEVDLVIQSSPPKDVESYIHRSGRTGRAGRTGVCICFYQHKEEYQLVQVEQKAGIKFKRIGVPSATEIIKASSKDAIRLLDSVPPTAISHFKQSAEKLIEEKGAVEALAAALAHISGATSVDQRSLINSNVGFVTMILQCSIEMPNISYAWKELKEQLGEEIDSKVKGMVFLKGKLGVCFDVPTASVTEIQEKWHDSRRWQLSVATEQPELEGPREGYGGFRGQREGSRGFRGQRDGNRRFRGQREGSRGPRGQRSGGGNKSNRSQNKGQKRSFSKAFGQ
